Literature values in article PMC10813008.

Columns and labels:
[1] = biological target: His25 (UniProt position 26, QTCVVHYTGML); experiment: NMR; conditions: not stated (ref 75 studied forms with and without immunosuppressant ligands; the review does not say which form the limit refers to)
[2] = biological target: His81 (UniProt position 112, NTIVLHHGPLY); experiment: NMR
[3] = biological target: His61 (UniProt position 92, RYQMDHGARIF); experiment: NMR
[4] = biological target: His12 (UniProt position 38, KFERQHMDSST); experiment: mass spectrometry
[5] = biological target: His119 (UniProt position 145, PYVPVHFDASV); experiment: mass spectrometry
[6] = biological target: His54 (UniProt position 54, KGSCFHRIIPG); experiment: NMR; conditions: not stated (ref 75 studied forms with and without immunosuppressant ligands; the review does not say which form the limit refers to)
[7] = complex with 3'-cytidine monophosphate (3'-CMP)

Q: With “FK506 binding protein (FKBP) (not stated (probably Homo sapiens))” as the substance, how does the pKa [1] read?
A: < 3.6

Q: Which pKa [2] does the source give for “Phosphatidylinositol-specific phospholipase C (PI-PLC) (Bacillus cereus)” here?
A: < 3

Q: And the pKa [3]?
A: < 3

Q: With “Ribonuclease A (RNase A, pancreatic ribonuclease) (Bos taurus)” as the substance, how does the pKa [4, 7] read?
A: 7.1

Q: What about the pKa ([4]; free enzyme) of the same substance?
A: 5.8

Q: And the pKa [5, 7]?
A: 7.0

Q: What about the pKa ([5]; free enzyme) of the same substance?
A: 6.3

Q: Which pKa [6] does the source give for “Cyclophilin (cyclophilin A) (not stated (probably Homo sapiens))” here?
A: < 4.2
